Key:
[1] = substrate: NC(=O)c1ccc[n+]([C@@H]2O[C@H](COP(=O)([O-])OP(=O)(O)OC[C@H]3O[C@@H](n4cnc5c(N)ncnc54)C(O)[C@H]3O)[C@H](O)C2O)c1; assay: Km determination of PARP15 automodification by M2-based ELISA (Experiment No. 1); type: biochemical, human; details: other: 500 nM PARP15, NAD+ 5 μM to 4 mM; pH 7.4
Procedure: 96-well ELISA plates were coated with reactions in triplicates consisting of 500 nM PARP15 with various concentrations of NAD^+ (5, 10, 20, 30, 40, 200, 400, 1000, 2000 and 4000 μM) in Reaction Buffer (50 mM Tris-HCl, pH 7.4, 2 mM dTT). The reactions were quenched with 20% ice-cold TCA at various time points (0 to 20 minutes). The plates were further incubated for up to 2 hour under room temperature followed by five washes of PBST.
PARP15 automodification assay was performed by adding 50 μg/ml PARP15 to Reaction Buffer with 500 μM NAD^+ in a microcentrifuge tube for 2 hours. Automodified PARP15 was diluted and plated simultaneously on both the ELISA plate and clear pureGrade plate according to manufacturer's protocol. Upon addition of Coomassie Plus (Bradford) Assay Reagent the absorbance of each well was measured on a Synergy H1 Hybrid Multi-Mode Microplate Reader (BioTek, VT). The concentrations of automodified PARP15 in each well were determined through linear regression curve using BSA standards. A standard curve was constructed through a linear correlation of automodified PARP15 concentrations and the corresponding fluorescence signals.

[2] = substrate: NC(=O)c1ccc[n+]([C@@H]2O[C@H](COP(=O)([O-])OP(=O)(O)OC[C@H]3O[C@@H](n4cnc5c(N)ncnc54)C(O)[C@H]3O)[C@H](O)C2O)c1; assay: Enzyme kinetics of PARP15-catalyzed automodification by MLISA (Experiment No. 2); type: biochemical, human; details: other: 500 nM PARP15, NAD+ 5-400 μM, Michaelis-Menten fit; pH 7.4
Procedure: To characterize enzyme kinetics, 96-well plates were coated with reactions in triplicates that consist of 500 nM of PARP15 and NAD^+ at varied concentrations (5, 10, 20, 30, 40, 200, and 400 μM) in reaction buffer (50 mM Tris-HCl, pH 7.4, 2 mM DTT). The reactions were quenched with 20% ice-cold TCA at different time points (0, 2.5, 5, 7.5, 10, 12.5, 15, and 20 minutes). The plates were further incubated for up to 2 hours under room temperature followed by five washes with 200 μL of PBST. Kinetic parameters were calculated by fitting data to Michaelis-Menten model implemented in GraphPad Prism.
To determine reaction rates, standard curves were generated for each reaction plate. […] Upon additions of Coomassie Plus (Bradford) assay reagents to clear 96-well pureGrade plates, the absorbance at 595 nm of each well was measured by Synergy H1 Hybrid Multi-Mode Microplate Reader. The concentrations of automodified PARP15 were calculated through fitting to linear regression curves generated with BSA standards. Standard curves were constructed through linear correlation of the determined concentrations of automodified PARP15 with the fluorescence intensities of the corresponding wells measured on 96-well ELISA plates.

B1: PARP15 (Homo sapiens) (protein)
chain: MGHHHHHHIEGRNLPEHWTDMNHQLFCMVQLEPGQSEYNTIKDKFTRTCSSYAIEKIERIQNAFLWQSYQVKKRQMDIKNDHKNNERLLFHGTDADSVPYVNQHGFNRSCAGKNAVSYGKGTYFAVDASYSAKDTYSKPDSNGRKHMYVVRVLTGVFTKGRAGLVTPPPKNPHNPTDLFDSVTNNTRSPKLFVVFFDNQAYPEYLITFTA
notes: The catalytic domains of PARP15 (residue 481-678); His6 (N); Factor Xa cleavage site (IEGR) (N); made in house; host or cells: E. coli BL21 (DE3)
Km [1]: 7.148 ± 3.138 µM | Km [2]: 4.5 ± 2.9 µM | kcat [2]: 0.000183 ± 1.7e-05 s⁻¹

Reference: patent US20190212340A1, “AN ELISA-LIKE ASSAY FOR QUANTIFYING ENZYMATIC ACTIVITIES OF MONO-ADP-RIBOSYLTRANSFERASES” (University of Southern California, priority 2016, published 2019)
